# Test results reported in patent publication US20170198014A1 (UNIVERSITY WASHINGTON THROUGH ITS CENTER FOR …, published 2017).
# Substitutions are numbered along the chain they refer to.
# B1: SB24alt1-1 (designed binder)
# chain: ASGMLAISMDTDKISNSFEDCKYFQLYVLSAGWTNTIFNDESGKEEIVKMSVDAIICKNISEENYKKFSKKIEIYHAEGDDVDKNISLFLEGELSKISNP
# B2: SB24solo2 (designed binder)
# chain: B1 chain with Q25L, L26I, Y27E, V28L, L29K, S51G, D83N
# Molecular target: hemagglutinin H1 (A/California/04/2009) (influenza A virus A/California/04/2009 …, UniProt P26140 18-529)
# Test: yeast surface display titration
row,Binder,binding result
1,B1,no binding
2,B2,no binding
